Results: patent US20240197902A1 (published 2024)
Where two headings read alike, the source gives them in different places. Each block holds one binder with its values, some of them ahead of it.

How the values were obtained:
ActRIIB L38N/L79R [1] = experiment: SPR; 37 C
ActRIIB E50L [2] = experiment: SPR; 37 C
ActRIIB-G1Fc [3] = experiment: SPR; 37 C
ActRIIB F82T [4] = experiment: SPR; 37 C; transient
K55A/F82I = experiment: SPR; 37 C
K55E = experiment: SPR; 37 C
K74A = experiment: SPR; 37 C
ActRIIB-G1Fc [5] = experiment: SPR; 37 C; remark: listed apart in the source
F82I = experiment: SPR; 37 C
K55A = experiment: SPR; 37 C
L79K = experiment: SPR; 37 C
F82T = experiment: SPR; 25 C
L38D = experiment: SPR; 25 C
Q98I = experiment: SPR; 25 C
Q98K = experiment: SPR; 25 C
Q98V = experiment: SPR; 25 C
ActRIIB-G1Fc [6] = experiment: SPR; 25 C
L38Q = experiment: SPR; 25 C
L79W = experiment: SPR; 25 C
L38R = experiment: SPR; 25 C
Q98R = experiment: SPR; 25 C
Q98A = experiment: SPR; 25 C
Q98L = experiment: SPR; 25 C
ActRIIB V99G [7] = experiment: SPR; 37 C
ActRIIB L38N/L79R [8] = experiment: SPR; 37 C; remark: listed apart in the source
ActRIIB E50L [9] = experiment: SPR; 37 C; remark: listed apart in the source
ActRIIB F82T [10] = experiment: SPR; 37 C
ActRIIB-G1Fc [11] = experiment: SPR; 37 C; remark: listed apart in the source
L79K/F82K = experiment: SPR; 37 C
F82K = experiment: SPR; 37 C
N35E = experiment: SPR; 25 C
N35F = experiment: SPR; 25 C
N35Q = experiment: SPR; 25 C
ActRIIB V99G [12] = experiment: SPR; 37 C; remark: listed apart in the source
ActRIIB F82T [13] = experiment: SPR; 37 C; remark: listed apart in the source

B1: BMP9 (ligand)
chain: SAGAGSHCQKTSLRVNFEDIGWDSWIIAPKEYEAYECKGGCFFPLADDVTPTKHAIVQTLVHLKFPTKVGKACCVPTKLSPISVLYKDDMGVPTLKYHYEGMSVAECGCR
Kd (ActRIIB L38N/L79R [1]): 2.13 nM
Kd (ActRIIB E50L [2]): 0.103 nM
Kd (ActRIIB-G1Fc [3]): 0.0911 nM
Kd (ActRIIB F82T [4]): 6.17 nM
Kd (K55A/F82I): 0.134 nM
Kd (K55E): 0.27 nM
Kd (K74A): 0.36 nM
Kd (ActRIIB-G1Fc [5]): 0.037 nM
Kd (F82I): 0.275 nM
Kd (K55A): 0.142 nM
Kd (L79K): 1.1 nM
Kd (F82T): 0.082 nM
Kd (L38D): 0.063 nM
Kd (Q98I): 0.059 nM
Kd (Q98K): 0.069 nM
Kd (Q98V): 0.047 nM
Kd (ActRIIB-G1Fc [6]): 0.059 nM
Kd (L38Q): 0.033 nM
Kd (L79W): 0.11 nM
Kd (L38R): 0.05 nM
Kd (Q98R): 0.074 nM
Kd (Q98A): 0.043 nM
Kd (Q98L): 0.071 nM

B2: Activin B (ligand)
chain: GLECDGRTNLCCRQQFFIDFRLIGWNDWIIAPTGYYGNYCEGSCPAYLAGVPGSASSFHTAVVNQYRMRGLNPGTVNSCCIPTKLSTMSMLYFDDEYNIVKRDVPNMIVEECGCA
Kd (ActRIIB V99G [7]): 0.847 nM
Kd (ActRIIB L38N/L79R [8]): 0.0369 nM
Kd (ActRIIB E50L [9]): 0.159 nM
Kd (ActRIIB F82T [10]): 0.012 nM
Kd (ActRIIB-G1Fc [11]): 0.0085 nM

B3: Activin A (ligand)
chain: GLECDGKVNICCKKQFFVSFKDIGWNDWIIAPSGYHANYCEGECPSHIAGTSGSSLSFHSTVINHYRMRGHSPFANLKSCCVPTKLRPMSMLYYDDGQNIIKKDIQNMIVEECGCS
Kd (K55A/F82I): 0.047 nM
Kd (L79K/F82K): 0.64 nM
Kd (K55E): 0.064 nM
Kd (K74A): 0.034 nM
Kd (ActRIIB-G1Fc [5]): 0.047 nM
Kd (F82I): 0.078 nM
Kd (K55A): 0.046 nM
Kd (F82K): 0.093 nM
Kd (L79K): 0.13 nM
Kd (N35E): 0.8 nM
Kd (N35F): 0.29 nM
Kd (L38D): 0.23 nM
Kd (Q98I): 0.157 nM
Kd (Q98K): 0.145 nM
Kd (N35Q): 0.32 nM
Kd (Q98V): 0.16 nM
Kd (ActRIIB-G1Fc [6]): 0.25 nM
Kd (L38Q): 0.2 nM
Kd (L79W): 0.26 nM
Kd (L38R): 0.23 nM
Kd (Q98R): 0.3 nM
Kd (Q98A): 0.155 nM
Kd (Q98L): 0.22 nM
Kd (ActRIIB L38N/L79R [8]): 0.339 nM
Kd (ActRIIB E50L [9]): 0.0456 nM
Kd (ActRIIB F82T [10]): 0.0109 nM
Kd (ActRIIB-G1Fc [11]): 0.0146 nM

The next lines start with the values.

Kd (ActRIIB V99G [12]): 0.184 nM
Kd (ActRIIB L38N/L79R [1]): 0.0886 nM
Kd (ActRIIB E50L [2]): 0.187 nM
Kd (ActRIIB F82T [13]): 0.0267 nM
Kd (ActRIIB-G1Fc [3]): 0.01 nM
Kd (K55A/F82I): 0.09 nM
Kd (L79K/F82K): 1.6 nM
Kd (K55E): 0.052 nM
Kd (K74A): 0.43 nM
Kd (ActRIIB-G1Fc [5]): 0.012 nM
Kd (F82I): 0.01 nM
Kd (K55A): 0.026 nM
Kd (F82K): 0.057 nM
Kd (L79K): 0.14 nM
Kd (N35E): 0.028 nM
Kd (F82T): 0.018 nM
Kd (N35F): 0.017 nM
Kd (L38D): 0.03 nM
Kd (Q98I): 0.049 nM
Kd (Q98K): 0.037 nM
Kd (N35Q): 0.02 nM
Kd (Q98V): 0.033 nM
Kd (ActRIIB-G1Fc [6]): 0.011 nM
Kd (L38Q): 0.021 nM
Kd (L79W): 0.044 nM
Kd (L38R): 0.007 nM
Kd (Q98R): 0.02 nM
Kd (Q98A): 0.037 nM
Kd (Q98L): 0.043 nM
B4: GDF11 (ligand)
chain: NLGLDCDEHSSESRCCRYPLTVDFEAFGWDWIIAPKRYKANYCSGQCEYMFMQKYPHTHLVQQANPRGSAGPCCTPTKMSPINMLYFNDKQQIIYGKIPGMVVDRCGCS

Kd (ActRIIB V99G [12]): 0.951 nM
Kd (ActRIIB L38N/L79R [1]): 0.293 nM
Kd (ActRIIB E50L [2]): 0.163 nM
Kd (ActRIIB F82T [13]): 0.0092 nM
Kd (ActRIIB-G1Fc [3]): 0.0409 nM
Kd (K55A/F82I): 0.007 nM
Kd (L79K/F82K): 0.068 nM
Kd (K55E): 0.014 nM
Kd (K74A): 0.033 nM
Kd (F82I): 0.008 nM
Kd (K55A): 0.023 nM
Kd (F82K): 0.008 nM
Kd (L79K): 1.4 nM
Kd (N35E): 0.28 nM
Kd (F82T): 0.14 nM
Kd (N35F): 0.22 nM
Kd (L38D): 0.15 nM
Kd (Q98I): 0.21 nM
Kd (Q98K): 0.068 nM
Kd (N35Q): 0.27 nM
Kd (Q98V): 0.048 nM
Kd (ActRIIB-G1Fc [6]): 0.169 nM
Kd (L38Q): 0.089 nM
Kd (L79W): 0.16 nM
Kd (L38R): 0.11 nM
Kd (Q98R): 0.32 nM
Kd (Q98A): 0.21 nM
Kd (Q98L): 0.065 nM
B5: BMP10 (ligand)
chain: NAKGNYCKRTPLYIDFKEIGWDSWIIAPPGYEAYECRGVCNYPLAEHLTPTKHAIIQALVHLKNSQKASKACCVPTKLEPISILYLDKGVVTYKFKYEGMAVSECGCR
